Among the targets are ETV4 FL E404K (Homo sapiens, UniProt P43268 1-484, E404K); ETV4 FL L430A (Homo sapiens, UniProt P43268 1-484, L430A); ETV4 FL K226ac (Homo sapiens, UniProt P43268 1-484); ETV4 FL K260ac (Homo sapiens, UniProt P43268 1-484); ETV4 L430M (Homo sapiens, UniProt P43268 1-484, L430M); ETV4 FL I407A/L430A (Homo sapiens, UniProt P43268 1-484, I407A;L430A); ETV4 337-484 (Homo sapiens, UniProt P43268 337-484); ETV4 FL E425K (Homo sapiens, UniProt P43268 1-484, E425K); ETV4 337-436 E425K (Homo sapiens, UniProt P43268 337-436, E425K); ETV4 FL E423K (Homo sapiens, UniProt P43268 1-484, E423K); ETV4 337-436 E423K (Homo sapiens, UniProt P43268 337-436, E423K); ETV4 FL F428A/F432A (Homo sapiens, UniProt P43268 1-484, F428A;F432A); ETV4 337-436 F428A/F432A (Homo sapiens, UniProt P43268 337-436, F428A;F432A).

Holding throughout (assay): EMSA
(In general: In EMSA bound probe runs differently from free probe, usually more slowly.)

The target of a further data set is T1, ETV4 337-436 E404K (Homo sapiens, UniProt P43268 337-436, E404K).
T1 sequence: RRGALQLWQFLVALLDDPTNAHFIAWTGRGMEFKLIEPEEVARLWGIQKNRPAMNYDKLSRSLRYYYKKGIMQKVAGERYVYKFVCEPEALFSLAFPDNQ

ETV4 FL E404K, sequence (P43268 whole entry E404K): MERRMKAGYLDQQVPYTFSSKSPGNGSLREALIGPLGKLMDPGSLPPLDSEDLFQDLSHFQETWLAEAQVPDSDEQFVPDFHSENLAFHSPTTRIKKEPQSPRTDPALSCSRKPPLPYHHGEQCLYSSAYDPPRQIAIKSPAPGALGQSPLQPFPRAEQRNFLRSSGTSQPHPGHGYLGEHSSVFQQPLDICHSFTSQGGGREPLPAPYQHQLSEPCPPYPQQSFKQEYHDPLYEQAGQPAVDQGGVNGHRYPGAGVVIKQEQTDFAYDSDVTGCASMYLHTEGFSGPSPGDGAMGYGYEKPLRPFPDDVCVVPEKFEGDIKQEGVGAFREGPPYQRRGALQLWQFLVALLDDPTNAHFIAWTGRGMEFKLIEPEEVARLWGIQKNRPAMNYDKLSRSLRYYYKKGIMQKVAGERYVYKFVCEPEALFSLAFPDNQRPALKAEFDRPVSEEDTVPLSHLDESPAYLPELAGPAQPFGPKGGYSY
ETV4 FL E423K, sequence (P43268 whole entry E423K): as the sequence (P43268 whole entry E404K) above, with K404E, E423K counted along it
ETV4 FL L430A, sequence (P43268 whole entry L430A): as the sequence (P43268 whole entry E404K) above, with K404E, L430A counted along it
ETV4 L430M, sequence (P43268 whole entry L430M): as the sequence (P43268 whole entry E404K) above, with K404E, L430M counted along it
ETV4 FL I407A/L430A, sequence (P43268 whole entry I407A/L430A): as the sequence (P43268 whole entry E404K) above, with K404E, I407A, L430A counted along it
ETV4 FL K226ac, sequence (P43268 whole entry): as the sequence (P43268 whole entry E404K) above, with K404E counted along it
ETV4 FL K260ac, sequence (P43268 whole entry): as the sequence (P43268 whole entry E404K) above, with K404E counted along it
ETV4 FL E425K, sequence (P43268 whole entry E425K): as the sequence (P43268 whole entry E404K) above, with K404E, E425K counted along it
ETV4 FL F428A/F432A, sequence (P43268 whole entry F428A/F432A): as the sequence (P43268 whole entry E404K) above, with K404E, F428A, F432A counted along it
ETV4 337-484, sequence (P43268 337-484): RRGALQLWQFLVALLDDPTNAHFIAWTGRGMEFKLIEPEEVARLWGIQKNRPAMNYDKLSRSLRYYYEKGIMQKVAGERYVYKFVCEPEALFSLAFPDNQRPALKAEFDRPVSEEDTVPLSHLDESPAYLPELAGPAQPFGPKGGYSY

B1: 27-mer consensus ETS duplex (dsDNA)
DNA 1: TCGACGGCCAAGCCGGAAGTGAGTGCC
DNA 2: TCGAGGCACTCACTTCCGGCTTGGCCG
As for B1, the binding result with ETV4 337-436 E404K, with ETV4 FL E404K, in the data set with ETV4 FL L430A, with ETV4 L430M, with ETV4 FL I407A/L430A and with ETV4 FL E425K was “binds” in each case. Further, the binding result with ETV4 337-436 E425K, with ETV4 FL E423K, with ETV4 337-436 E423K, in the data set with ETV4 FL F428A/F432A and with ETV4 337-436 F428A/F432A was “binds” in each case. Besides, the results for the Kd in the data set with ETV4 FL K226ac, in the data set with ETV4 FL K260ac and in the data set with ETV4 337-484 were 300 ± 60 pM, 510 ± 30 pM and 110 ± 20 pM, respectively.

The Kd is a measure of binding affinity in units of concentration. Low readings indicate tighter binding, high ones weaker binding.

(Values after article PMC5389675.)
